{"source": "patent US12576025B2", "about": "“Pharmaceutical parenteral composition of dual GLP1/2 agonist” (Zealand Pharma A/S, priority 2019, dated 2026)", "experiment": "Physical stability via ThT fibril formation (ASSAY IVc)", "format": "physicochemical", "parameters": "key to Aggregation (ThT), no added tonicity agent / Aggregation (ThT), 270 mM mannitol: FD = Fibrillation Detected; FND = Fibrillation Not Detected", "details": "for Aggregation (ThT), 270 mM mannitol / Aggregation (ThT), no added tonicity agent: 96 hours", "procedure": "Samples were prepared in a total volume of 0.5 mL API (herein e.g. CPD1) stock solutions were prepared by dissolving API in demineralised water at ambient temperature (typically 25° C.) to achieve 5 and 25 mg/mL API, respectively. 8 working solutions were prepared: 1) 40 mM phosphate pH 6 and 80 μM ThT; 2) 40 mM phosphate pH 6.5 and 80 μM ThT; 3) 40 mM phosphate pH 7 and 80 μM ThT; 4) 40 mM phosphate pH 8 and 80 μM ThT; 5) 40 mM phosphate pH 6, 540 mM mannitol and 80 μM ThT; 6) 40 mM phosphate pH 6.5, 540 mM mannitol and 80 μM ThT; 7) 40 mM phosphate pH 7, 540 mM mannitol and 80 μM ThT; and 8) 40 mM phosphate pH 8, 540 mM mannitol and 80 μM ThT.\n200 μL of API stock was mixed with 250 μL working solution, pH was measured and adjusted to target, followed by adding demineralised water to a final volume of 500 μL. Samples were loaded in a 96-well black fluorescence plate (clear bottom) in triplicate 3×150 μL. Data were collected at fixed intervals of 10 min, each preceded by 300 s of automixing (agitation), over a period of 96 hours at 40° C. Physical stability, expressed as lag-time of fibril formation (in hours), was defined as the intersection between two linear regressions representing the initial stable phase and the growth phase.", "key": {"[1]": {"details": "2 mg/mL CPD1, 20 mM phosphate pH 6, 40° C."}, "[2]": {"details": "2 mg/mL CPD1, 20 mM phosphate pH 6.5, 40° C."}, "[3]": {"details": "2 mg/mL CPD1, 20 mM phosphate pH 7, 40° C."}, "[4]": {"details": "2 mg/mL CPD1, 20 mM phosphate pH 8, 40° C."}, "[5]": {"details": "10 mg/mL CPD1, 20 mM phosphate pH 6, 40° C."}, "[6]": {"details": "10 mg/mL CPD1, 20 mM phosphate pH 6.5, 40° C."}, "[7]": {"details": "10 mg/mL CPD1, 20 mM phosphate pH 7, 40° C."}, "[8]": {"details": "10 mg/mL CPD1, 20 mM phosphate pH 8, 40° C."}}, "note": "*1 amine or outer side, *2 acyl side, *3 side chain or, on linkers, in order; H or OH if unused. Where no end group is shown, it is not given here. Side-chain parts run from the residue outwards. [ ]: non-standard residue; d: D form. The star is where a group is joined. C18 diacid = O=C(O)CCCCCCCCCCCCCCCCC(=O)*; γGlu = O=C(O)[C@H](CCC(=O)[*:2])N[*:1]; Aib = CC(C)(N)C(=O)O", "data": [{"substance": "H[Aib]EGSFTSELATILD[ψ]QAARDFIAWLIQHKITD (H[Aib]EGSFTSELATILDK([γGlu-C18 diacid])QAARDFIAWLIQHKITD; not fully specified; printed as H[Aib]EGSFTSELATILD[ψ]QAARDFIAWLIQHKITD; also: X16: L or D lysine) [CPD1, GLP-1/GLP-2 dual agonist]", "values": [{"measurement": "Aggregation (ThT), 270 mM mannitol", "setting": "[1]", "result": "FD"}, {"measurement": "Aggregation (ThT), no added tonicity agent", "setting": "[1]", "result": "FD"}, {"measurement": "Aggregation (ThT), 270 mM mannitol", "setting": "[2]", "result": "FND"}, {"measurement": "Aggregation (ThT), no added tonicity agent", "setting": "[2]", "result": "FND"}, {"measurement": "Aggregation (ThT), 270 mM mannitol", "setting": "[3]", "result": "FND"}, {"measurement": "Aggregation (ThT), no added tonicity agent", "setting": "[3]", "result": "FND"}, {"measurement": "Aggregation (ThT), 270 mM mannitol", "setting": "[4]", "result": "FND"}, {"measurement": "Aggregation (ThT), no added tonicity agent", "setting": "[4]", "result": "FND"}, {"measurement": "Aggregation (ThT), 270 mM mannitol", "setting": "[5]", "result": "FD"}, {"measurement": "Aggregation (ThT), no added tonicity agent", "setting": "[5]", "result": "FD"}, {"measurement": "Aggregation (ThT), 270 mM mannitol", "setting": "[6]", "result": "FND"}, {"measurement": "Aggregation (ThT), no added tonicity agent", "setting": "[6]", "result": "FND"}, {"measurement": "Aggregation (ThT), 270 mM mannitol", "setting": "[7]", "result": "FND"}, {"measurement": "Aggregation (ThT), no added tonicity agent", "setting": "[7]", "result": "FND"}, {"measurement": "Aggregation (ThT), 270 mM mannitol", "setting": "[8]", "result": "FND"}, {"measurement": "Aggregation (ThT), no added tonicity agent", "setting": "[8]", "result": "FND"}, {"measurement": "Amyloid formation / fibrillation", "setting": "2 and 10 mg/mL CPD1, pH 6", "result": "amyloid formation was observed"}, {"measurement": "Amyloid formation / fibrillation", "setting": "2 and 10 mg/mL CPD1, pH 7 or 8", "result": "no fibrillation was observed"}]}]}
